Reference: article doi:10.1101/2021.03.16.435520
Values joined by “and” are separate entries in the source; they are usually repeats but may differ in a detail not shown here. Equal entries are not always repeated.

How the values were obtained:
[1] = target: IRE1α kinase-endoribonuclease module, fully phosphorylated (IRE1-KR-3P) (human) (UniProt O75460); assay: cross-linking
[2] = target: IRE1α kinase-endoribonuclease module, unphosphorylated (IRE1-KR-0P) (human) (UniProt O75460); assay: cross-linking

| Substance | stoichiometry N [1] | stoichiometry N [2] |
| --- | --- | --- |
| IRE1α kinase-endoribonuclease module, fully phosphorylated (IRE1-KR-3P) (from UniProt O75460 547-977) (domain or fragment) | 2 and 4 and 6 |  |
| IRE1α kinase-endoribonuclease module, unphosphorylated (IRE1-KR-0P) (from UniProt O75460 547-977) (domain or fragment) |  | 2 |
